According to patent US20100041597A1 (published 2010):

T1: PKC-ε (endogenous, human cell extracts) (human, UniProt Q02156 1-737)
T1 construct: Two bands on the blot, said to be alternate splicing variants; also called PKC-epsilon; PKC-ε Band 1
T1 sequence (looked up): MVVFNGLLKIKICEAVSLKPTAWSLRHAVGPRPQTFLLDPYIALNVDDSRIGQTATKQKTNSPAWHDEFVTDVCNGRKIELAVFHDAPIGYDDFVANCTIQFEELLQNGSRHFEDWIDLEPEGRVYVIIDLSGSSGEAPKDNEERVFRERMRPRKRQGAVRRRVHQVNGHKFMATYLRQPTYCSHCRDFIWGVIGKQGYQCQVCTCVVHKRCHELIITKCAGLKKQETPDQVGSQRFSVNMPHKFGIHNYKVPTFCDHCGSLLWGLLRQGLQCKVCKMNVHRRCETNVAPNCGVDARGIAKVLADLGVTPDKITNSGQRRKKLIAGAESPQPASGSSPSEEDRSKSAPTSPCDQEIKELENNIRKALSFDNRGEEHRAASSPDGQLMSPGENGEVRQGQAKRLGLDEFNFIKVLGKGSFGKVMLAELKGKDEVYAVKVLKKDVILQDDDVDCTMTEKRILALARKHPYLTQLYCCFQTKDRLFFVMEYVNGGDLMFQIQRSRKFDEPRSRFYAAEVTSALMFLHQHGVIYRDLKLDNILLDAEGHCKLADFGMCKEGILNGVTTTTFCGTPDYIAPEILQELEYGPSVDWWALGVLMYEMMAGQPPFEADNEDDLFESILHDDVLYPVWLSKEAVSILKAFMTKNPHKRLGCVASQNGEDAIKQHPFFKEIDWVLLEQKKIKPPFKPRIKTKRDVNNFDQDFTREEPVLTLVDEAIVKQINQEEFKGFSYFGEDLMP

T2: PKC-ζ (endogenous, human cell extracts) (human, UniProt Q05513 1-592)
T2 construct: also called PKC-zeta
T2 sequence (looked up): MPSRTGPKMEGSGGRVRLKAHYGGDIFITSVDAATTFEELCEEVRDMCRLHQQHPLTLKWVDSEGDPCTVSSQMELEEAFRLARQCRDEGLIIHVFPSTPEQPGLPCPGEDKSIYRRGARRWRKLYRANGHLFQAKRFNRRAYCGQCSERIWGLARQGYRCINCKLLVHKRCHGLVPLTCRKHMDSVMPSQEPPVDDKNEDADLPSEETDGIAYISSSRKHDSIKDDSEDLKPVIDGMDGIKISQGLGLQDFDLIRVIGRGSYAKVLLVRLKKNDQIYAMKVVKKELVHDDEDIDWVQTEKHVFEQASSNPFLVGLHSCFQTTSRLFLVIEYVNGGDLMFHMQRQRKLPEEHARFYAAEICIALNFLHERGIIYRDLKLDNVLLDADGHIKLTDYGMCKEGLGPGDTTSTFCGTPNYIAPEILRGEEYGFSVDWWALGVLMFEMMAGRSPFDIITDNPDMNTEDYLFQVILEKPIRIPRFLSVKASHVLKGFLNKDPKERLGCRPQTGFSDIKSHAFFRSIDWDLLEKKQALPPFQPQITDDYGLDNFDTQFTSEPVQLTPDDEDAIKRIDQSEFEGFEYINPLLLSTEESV

T3: PKC-ι (endogenous, human cell extracts) (human, UniProt P41743 2-596)
T3 construct: also called PKC-iota
T3 sequence (looked up): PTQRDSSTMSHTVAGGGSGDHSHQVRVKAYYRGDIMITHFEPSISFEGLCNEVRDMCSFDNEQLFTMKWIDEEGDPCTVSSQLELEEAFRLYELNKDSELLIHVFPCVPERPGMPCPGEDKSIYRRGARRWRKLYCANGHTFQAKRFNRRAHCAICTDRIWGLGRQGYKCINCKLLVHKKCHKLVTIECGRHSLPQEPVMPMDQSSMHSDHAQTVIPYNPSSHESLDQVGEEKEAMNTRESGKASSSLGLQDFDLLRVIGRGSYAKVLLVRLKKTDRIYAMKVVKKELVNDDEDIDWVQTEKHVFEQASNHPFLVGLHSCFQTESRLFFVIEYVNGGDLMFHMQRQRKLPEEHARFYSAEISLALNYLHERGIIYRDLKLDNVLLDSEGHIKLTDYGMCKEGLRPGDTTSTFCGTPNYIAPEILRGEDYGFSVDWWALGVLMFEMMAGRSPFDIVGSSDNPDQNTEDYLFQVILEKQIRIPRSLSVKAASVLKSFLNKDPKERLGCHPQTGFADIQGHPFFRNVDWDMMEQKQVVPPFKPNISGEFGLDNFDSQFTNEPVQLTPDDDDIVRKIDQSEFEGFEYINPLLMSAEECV


Tests used:
[1] = biological target: T1, PKC-ε (endogenous, human cell extracts); test: Protocol B blot competition, IMR-32 extract, competitor anti-PKC-ε Ab, Band 2; PRE 20 µg
Protocol: (§1) The ability of the peptides PRE 2 and PRE 3 (see Table 3) to interfere with the binding of a PKC-α-specific polyclonal antibody (Santa Cruz Biotechnology, Inc.) to PKC-α was determined using a modified version of the protocol outlined above in which the test peptide was added directly to the cell extract prior to electrophoresis at a concentration of either 5× or 15× the concentration of the protein applied to each well of the gel for the Western blots (20 μg).
(§2) Peptides PRE 2, PRE 3 and PRE 4 (see Table 3) were tested for their ability to interfere with the binding of isoform-specific polyclonal antibodies (Santa Cruz Biotechnology, Inc.) to PKC-ε using the general protocol described in Example 3. Two bands, representing alternate splicing variants of PKC-ε, were identified on the Western blot using this anti-PKC-ε antibody.

[2] = biological target: T1, PKC-ε (endogenous, human cell extracts); test: Protocol B blot competition, IMR-32 extract, competitor anti-PKC-ε Ab, Band 1; PRE 100 µg
Protocol: as §1, §2

[3] = biological target: T1, PKC-ε (endogenous, human cell extracts); test: Protocol B blot competition, IMR-32 extract, competitor anti-PKC-ε Ab, Band 2; PRE 100 µg
Protocol: as §1, §2

[4] = biological target: T1, PKC-ε (endogenous, human cell extracts); test: Protocol B blot competition, IMR-32 extract, competitor anti-PKC-ε Ab, Band 1; PRE 50 µg
Protocol: as §1, §2

[5] = biological target: T2, PKC-ζ (endogenous, human cell extracts); test: Western-blot competition on cell extracts against the anti-PKC-ζ primary antibody; band densitometry
[6] = biological target: T1, PKC-ε (endogenous, human cell extracts); test: Western-blot competition on cell extracts against the anti-PKC-ε primary antibody; band densitometry
[7] = biological target: T3, PKC-ι (endogenous, human cell extracts); test: Western-blot competition on cell extracts against the anti-PKC-ι primary antibody; band densitometry

Row | Binder | band intensity [1] | inhibition (%) [1] [%] | relative intensity (%) [1] [%] | band intensity [2] | inhibition (%) [2] [%] | relative intensity (%) [2] [%] | band intensity [3] | inhibition (%) [3] [%] | relative intensity (%) [3] [%] | band intensity [4] | inhibition (%) [4] [%] | relative intensity (%) [4] [%] | binding result [5] | binding result [6] | binding result [7]
1 | Ac-KDAQNLIGISI-NH2 (Synthetic peptide; also called peptide PRE 4) [PRE 4] | 153 | 46.6 | 53.3 | 0 | 100 | 0 | 0 | 100 | 0 | 0 | 100 | 0 |  |  | 
2 | Ac-RDAQNLIGISI-NH2 (Synthetic peptide; also called peptide PRE 11) [PRE 11] |  |  |  |  |  |  |  |  |  |  |  |  | no binding (tested: 20X the primary antibody concentration) |  | 
3 | Ac-AKGIQEVKGGDAQNLIGISI-NH2 (Synthetic peptide; also called peptide PRE 3) [PRE 3] | 0 | 100 | 0 | 0 | 100 | 0 | 0 | 100 | 0 | 0 | 100 | 0 |  |  | 
4 | Ac-KDAQNLI-NH2 (Synthetic peptide; also called peptide PRE 12; Ac-KDAQNLI-NH2) [PRE 12] |  |  |  |  |  |  |  |  |  |  |  |  |  | no binding (tested: 20X the primary antibody concentration) | no binding (tested: 20X the primary antibody concentration)
